B1: cyclic nNOS β-hairpin peptide D114G (peptide)
peptide: cyclo(THLETTFTGGGTPKTIRVTQ[dP]GQ)
SMILES: CC[C@H](C)[C@@H]1NC(=O)[C@H]([C@@H](C)O)NC(=O)[C@H](CCCCN)NC(=O)[C@@H]2CCCN2C(=O)[C@H]([C@@H](C)O)NC(=O)CNC(=O)CNC(=O)CNC(=O)[C@H]([C@@H](C)O)NC(=O)[C@H](Cc2ccccc2)NC(=O)[C@H]([C@@H](C)O)NC(=O)[C@H]([C@@H](C)O)NC(=O)[C@H](CCC(=O)O)NC(=O)[C@H](CC(C)C)NC(=O)[C@H](Cc2c[nH]cn2)NC(=O)[C@H]([C@@H](C)O)NC(=O)[C@H](CCC(N)=O)NC(=O)CNC(=O)[C@H]2CCCN2C(=O)[C@H](CCC(N)=O)NC(=O)[C@H]([C@@H](C)O)NC(=O)[C@H](C(C)C)NC(=O)[C@H](CCCNC(=N)N)NC1=O
B2: cyclic nNOS β-hairpin peptide H106Y (peptide)
peptide: cyclo(TYLETTFTGDGTPKTIRVTQ[dP]GQ)
SMILES: CC[C@H](C)[C@@H]1NC(=O)[C@H]([C@@H](C)O)NC(=O)[C@H](CCCCN)NC(=O)[C@@H]2CCCN2C(=O)[C@H]([C@@H](C)O)NC(=O)CNC(=O)[C@H](CC(=O)O)NC(=O)CNC(=O)[C@H]([C@@H](C)O)NC(=O)[C@H](Cc2ccccc2)NC(=O)[C@H]([C@@H](C)O)NC(=O)[C@H]([C@@H](C)O)NC(=O)[C@H](CCC(=O)O)NC(=O)[C@H](CC(C)C)NC(=O)[C@H](Cc2ccc(O)cc2)NC(=O)[C@H]([C@@H](C)O)NC(=O)[C@H](CCC(N)=O)NC(=O)CNC(=O)[C@H]2CCCN2C(=O)[C@H](CCC(N)=O)NC(=O)[C@H]([C@@H](C)O)NC(=O)[C@H](C(C)C)NC(=O)[C@H](CCCNC(=N)N)NC1=O
B3: cyclic nNOS β-hairpin peptide F111V (peptide)
peptide: cyclo(THLETTVTGDGTPKTIRVTQ[dP]GQ)
SMILES: CC[C@H](C)[C@@H]1NC(=O)[C@H]([C@@H](C)O)NC(=O)[C@H](CCCCN)NC(=O)[C@@H]2CCCN2C(=O)[C@H]([C@@H](C)O)NC(=O)CNC(=O)[C@H](CC(=O)O)NC(=O)CNC(=O)[C@H]([C@@H](C)O)NC(=O)[C@H](C(C)C)NC(=O)[C@H]([C@@H](C)O)NC(=O)[C@H]([C@@H](C)O)NC(=O)[C@H](CCC(=O)O)NC(=O)[C@H](CC(C)C)NC(=O)[C@H](Cc2c[nH]cn2)NC(=O)[C@H]([C@@H](C)O)NC(=O)[C@H](CCC(N)=O)NC(=O)CNC(=O)[C@H]2CCCN2C(=O)[C@H](CCC(N)=O)NC(=O)[C@H]([C@@H](C)O)NC(=O)[C@H](C(C)C)NC(=O)[C@H](CCCNC(=N)N)NC1=O
B4: cyclic nNOS β-hairpin peptide D114K (peptide)
peptide: cyclo(THLETTFTGKGTPKTIRVTQ[dP]GQ)
SMILES: CC[C@H](C)[C@@H]1NC(=O)[C@H]([C@@H](C)O)NC(=O)[C@H](CCCCN)NC(=O)[C@@H]2CCCN2C(=O)[C@H]([C@@H](C)O)NC(=O)CNC(=O)[C@H](CCCCN)NC(=O)CNC(=O)[C@H]([C@@H](C)O)NC(=O)[C@H](Cc2ccccc2)NC(=O)[C@H]([C@@H](C)O)NC(=O)[C@H]([C@@H](C)O)NC(=O)[C@H](CCC(=O)O)NC(=O)[C@H](CC(C)C)NC(=O)[C@H](Cc2c[nH]cn2)NC(=O)[C@H]([C@@H](C)O)NC(=O)[C@H](CCC(N)=O)NC(=O)CNC(=O)[C@H]2CCCN2C(=O)[C@H](CCC(N)=O)NC(=O)[C@H]([C@@H](C)O)NC(=O)[C@H](C(C)C)NC(=O)[C@H](CCCNC(=N)N)NC1=O
B5: cyclic nNOS β-hairpin peptide I120R (peptide)
peptide: cyclo(THLETTFTGDGTPKTRRVTQ[dP]GQ)
SMILES: CC(C)C[C@@H]1NC(=O)[C@H](Cc2c[nH]cn2)NC(=O)[C@H]([C@@H](C)O)NC(=O)[C@H](CCC(N)=O)NC(=O)CNC(=O)[C@H]2CCCN2C(=O)[C@H](CCC(N)=O)NC(=O)[C@H]([C@@H](C)O)NC(=O)[C@H](C(C)C)NC(=O)[C@H](CCCNC(=N)N)NC(=O)[C@H](CCCNC(=N)N)NC(=O)[C@H]([C@@H](C)O)NC(=O)[C@H](CCCCN)NC(=O)[C@@H]2CCCN2C(=O)[C@H]([C@@H](C)O)NC(=O)CNC(=O)[C@H](CC(=O)O)NC(=O)CNC(=O)[C@H]([C@@H](C)O)NC(=O)[C@H](Cc2ccccc2)NC(=O)[C@H]([C@@H](C)O)NC(=O)[C@H]([C@@H](C)O)NC(=O)[C@H](CCC(=O)O)NC1=O
B6: cyclic nNOS β-hairpin peptide I120Y (peptide)
peptide: cyclo(THLETTFTGDGTPKTYRVTQ[dP]GQ)
SMILES: CC(C)C[C@@H]1NC(=O)[C@H](Cc2c[nH]cn2)NC(=O)[C@H]([C@@H](C)O)NC(=O)[C@H](CCC(N)=O)NC(=O)CNC(=O)[C@H]2CCCN2C(=O)[C@H](CCC(N)=O)NC(=O)[C@H]([C@@H](C)O)NC(=O)[C@H](C(C)C)NC(=O)[C@H](CCCNC(=N)N)NC(=O)[C@H](Cc2ccc(O)cc2)NC(=O)[C@H]([C@@H](C)O)NC(=O)[C@H](CCCCN)NC(=O)[C@@H]2CCCN2C(=O)[C@H]([C@@H](C)O)NC(=O)CNC(=O)[C@H](CC(=O)O)NC(=O)CNC(=O)[C@H]([C@@H](C)O)NC(=O)[C@H](Cc2ccccc2)NC(=O)[C@H]([C@@H](C)O)NC(=O)[C@H]([C@@H](C)O)NC(=O)[C@H](CCC(=O)O)NC1=O
B7: cyclic nNOS β-hairpin peptide H106E (peptide)
peptide: cyclo(TELETTFTGDGTPKTIRVTQ[dP]GQ)
SMILES: CC[C@H](C)[C@@H]1NC(=O)[C@H]([C@@H](C)O)NC(=O)[C@H](CCCCN)NC(=O)[C@@H]2CCCN2C(=O)[C@H]([C@@H](C)O)NC(=O)CNC(=O)[C@H](CC(=O)O)NC(=O)CNC(=O)[C@H]([C@@H](C)O)NC(=O)[C@H](Cc2ccccc2)NC(=O)[C@H]([C@@H](C)O)NC(=O)[C@H]([C@@H](C)O)NC(=O)[C@H](CCC(=O)O)NC(=O)[C@H](CC(C)C)NC(=O)[C@H](CCC(=O)O)NC(=O)[C@H]([C@@H](C)O)NC(=O)[C@H](CCC(N)=O)NC(=O)CNC(=O)[C@H]2CCCN2C(=O)[C@H](CCC(N)=O)NC(=O)[C@H]([C@@H](C)O)NC(=O)[C@H](C(C)C)NC(=O)[C@H](CCCNC(=N)N)NC1=O
B8: cyclic nNOS β-hairpin peptide D114P (peptide)
peptide: cyclo(THLETTFTGPGTPKTIRVTQ[dP]GQ)
SMILES: CC[C@H](C)[C@@H]1NC(=O)[C@H]([C@@H](C)O)NC(=O)[C@H](CCCCN)NC(=O)[C@@H]2CCCN2C(=O)[C@H]([C@@H](C)O)NC(=O)CNC(=O)[C@@H]2CCCN2C(=O)CNC(=O)[C@H]([C@@H](C)O)NC(=O)[C@H](Cc2ccccc2)NC(=O)[C@H]([C@@H](C)O)NC(=O)[C@H]([C@@H](C)O)NC(=O)[C@H](CCC(=O)O)NC(=O)[C@H](CC(C)C)NC(=O)[C@H](Cc2c[nH]cn2)NC(=O)[C@H]([C@@H](C)O)NC(=O)[C@H](CCC(N)=O)NC(=O)CNC(=O)[C@H]2CCCN2C(=O)[C@H](CCC(N)=O)NC(=O)[C@H]([C@@H](C)O)NC(=O)[C@H](C(C)C)NC(=O)[C@H](CCCNC(=N)N)NC1=O
B9: cyclic nNOS β-hairpin peptide G115R (peptide)
peptide: cyclo(THLETTFTGDRTPKTIRVTQ[dP]GQ)
SMILES: CC[C@H](C)[C@@H]1NC(=O)[C@H]([C@@H](C)O)NC(=O)[C@H](CCCCN)NC(=O)[C@@H]2CCCN2C(=O)[C@H]([C@@H](C)O)NC(=O)[C@H](CCCNC(=N)N)NC(=O)[C@H](CC(=O)O)NC(=O)CNC(=O)[C@H]([C@@H](C)O)NC(=O)[C@H](Cc2ccccc2)NC(=O)[C@H]([C@@H](C)O)NC(=O)[C@H]([C@@H](C)O)NC(=O)[C@H](CCC(=O)O)NC(=O)[C@H](CC(C)C)NC(=O)[C@H](Cc2c[nH]cn2)NC(=O)[C@H]([C@@H](C)O)NC(=O)[C@H](CCC(N)=O)NC(=O)CNC(=O)[C@H]2CCCN2C(=O)[C@H](CCC(N)=O)NC(=O)[C@H]([C@@H](C)O)NC(=O)[C@H](C(C)C)NC(=O)[C@H](CCCNC(=N)N)NC1=O
B10: cyclic nNOS β-hairpin peptide D114R (peptide)
peptide: cyclo(THLETTFTGRGTPKTIRVTQ[dP]GQ)
SMILES: CC[C@H](C)[C@@H]1NC(=O)[C@H]([C@@H](C)O)NC(=O)[C@H](CCCCN)NC(=O)[C@@H]2CCCN2C(=O)[C@H]([C@@H](C)O)NC(=O)CNC(=O)[C@H](CCCNC(=N)N)NC(=O)CNC(=O)[C@H]([C@@H](C)O)NC(=O)[C@H](Cc2ccccc2)NC(=O)[C@H]([C@@H](C)O)NC(=O)[C@H]([C@@H](C)O)NC(=O)[C@H](CCC(=O)O)NC(=O)[C@H](CC(C)C)NC(=O)[C@H](Cc2c[nH]cn2)NC(=O)[C@H]([C@@H](C)O)NC(=O)[C@H](CCC(N)=O)NC(=O)CNC(=O)[C@H]2CCCN2C(=O)[C@H](CCC(N)=O)NC(=O)[C@H]([C@@H](C)O)NC(=O)[C@H](C(C)C)NC(=O)[C@H](CCCNC(=N)N)NC1=O
B11: cyclic nNOS β-hairpin peptide H106F (peptide)
peptide: cyclo(TFLETTFTGDGTPKTIRVTQ[dP]GQ)
SMILES: CC[C@H](C)[C@@H]1NC(=O)[C@H]([C@@H](C)O)NC(=O)[C@H](CCCCN)NC(=O)[C@@H]2CCCN2C(=O)[C@H]([C@@H](C)O)NC(=O)CNC(=O)[C@H](CC(=O)O)NC(=O)CNC(=O)[C@H]([C@@H](C)O)NC(=O)[C@H](Cc2ccccc2)NC(=O)[C@H]([C@@H](C)O)NC(=O)[C@H]([C@@H](C)O)NC(=O)[C@H](CCC(=O)O)NC(=O)[C@H](CC(C)C)NC(=O)[C@H](Cc2ccccc2)NC(=O)[C@H]([C@@H](C)O)NC(=O)[C@H](CCC(N)=O)NC(=O)CNC(=O)[C@H]2CCCN2C(=O)[C@H](CCC(N)=O)NC(=O)[C@H]([C@@H](C)O)NC(=O)[C@H](C(C)C)NC(=O)[C@H](CCCNC(=N)N)NC1=O

This is an account of results in US20230220021A1 (UNIVERSITY OF COPENHAGEN, published 2023).

[ ]: non-standard residue; d: D form.

T1 sequence (P78352 160-246): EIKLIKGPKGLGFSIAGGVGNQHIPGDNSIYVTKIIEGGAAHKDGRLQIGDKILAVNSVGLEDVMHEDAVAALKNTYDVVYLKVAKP

The test addresses T1, (7× His)-PSD-95-PDZ2 wild type (UniProt P78352 160-246).
T1 construct: domain: PDZ2; recombinant from E. coli; also called PSD-95-PDZ2 WT; not shown: 7x His tag
The test can be described thus: FP competition.
What is called Ki is the dissociation constant of the complex between target and ligand, obtained from inhibition or displacement. A low value points to a stronger hold on the target. Turning to B1, affinity was put at a Ki of 2.59 µM and the “Relative Ki (Ki mut/Ki WT)” value came out at 1.73.
As to B2, the inhibition constant Ki is 1.18 µM and the “Relative Ki (Ki mut/Ki WT)” value turned out to be 0.79.
Regarding B3, the inhibition constant Ki was 77.4 µM and the “Relative Ki (Ki mut/Ki WT)” value was 51.6.
Consider B4, for which the Ki was determined as 2.87 µM and the “Relative Ki (Ki mut/Ki WT)” value came out at 1.91.
Take B5: the affinity, expressed as Ki, was 1.76 µM and the “Relative Ki (Ki mut/Ki WT)” value was 1.17.
On the same counts, the results for B6 are 1.6 µM and 1.07.
As for B7, the Ki came out at 6.19 µM and the “Relative Ki (Ki mut/Ki WT)” value was determined as 4.13.
For B8, the inhibition constant Ki was determined as 2.4 µM and the “Relative Ki (Ki mut/Ki WT)” value amounted to 1.6.
On to B9, for which the affinity corresponds to a Ki of 0.75 µM and the “Relative Ki (Ki mut/Ki WT)” value stood at 0.5.
B10: affinity was put at a Ki of 0.99 µM and the “Relative Ki (Ki mut/Ki WT)” value was 0.66.
In the same order, the values of B11 are 1.19 µM and 0.79.
